Assay results published in PMC5818171, “The role of conserved residues in Fdc decarboxylase in prenylated flavin mononucleotide oxidative maturation, cofactor isomerization, and catalysis” (The Journal of Biological Chemistry, 2017).
Substitutions are numbered along the chain they refer to. Numbers in names are those of the source.

B1: S. cerevisiae Fdc1 (Saccharomyces cerevisiae S288C) (protein)
chain: MRKLNPALEFRDFIQVLKDEDDLIEITEEIDPNLEVGAIMRKAYESHLPAPLFKNLKGASKDLFSILGCPAGLRSKEKGDHGRIAHHLGLDPKTTIKEIIDYLLECKEKEPLPPITVPVSSAPCKTHILSEEKIHLQSLPTPYLHVSDGGKYLQTYGMWILQTPDKKWTNWSIARGMVVDDKHITGLVIKPQHIRQIADSWAAIGKANEIPFALCFGVPPAAILVSSMPIPEGVSESDYVGAILGESVPVVKCETNDLMVPATSEMVFEGTLSLTDTHLEGPFGEMHGYVFKSQGHPCPLYTVKAMSYRDNAILPVSNPGLCTDETHTLIGSLVATEAKELAIESGLPILDAFMPYEAQALWLILKVDLKGLQALKTTPEEFCKKVGDIYFRTKVGFIVHEIILVADDIDIFNFKEVIWAYVTRHTPVADQMAFDDVTSFPLAPFVSQSSRSKTMKGGKCVTNCIFRQQYERSFDYITCNFEKGYPKGLVDKVNENWKRYGYK
B2: S. cerevisiae Fdc1 (Saccharomyces cerevisiae S288C; E285D) (protein)
chain: B1 chain with E285D
B3: S. cerevisiae Fdc1 (Saccharomyces cerevisiae S288C; E280D) (protein)
chain: B1 chain with E280D

Columns and labels:
[1] = tested on: O=C(O)/C=C/c1ccccc1; test: purified protein; settings: 50 mM KCl, 50 mM NaPi, pH 6, 25 °C, prFMN holo-enzyme
[2] = target: A. niger Fdc1 (Aspergillus niger, UniProt A2QHE5); settings: purified and crystallized in the dark
[3] = substrate: O=C(O)/C=C/c1ccccc1; test: purified protein; settings: 50 mM KCl, 50 mM NaPi, pH 6, 25 °C, prFMN holo-enzyme; remark: listed apart in the source

Molecule	Km [1]	kcat [1]	crystal structure [2]	Km [3]	kcat [3]
A. niger Fdc1 (Aspergillus niger CBS 513.88)	10.0 ± 0.6 µM	9.4 ± 0.1 s⁻¹			
Cc1cc2c3c(c1C)C(C)(C)CC=[N+]3c1c(nc([O-])[nH]c1=O)N2C[C@H](O)[C@H](O)[C@H](O)COP(=O)(O)O [prFMN^iminium]			the prFMN cofactor is exclusively in the iminium form		
A. niger Fdc1 (Aspergillus niger CBS 513.88; E282D)	50 ± 10 µM	0.63 ± 0.04 s⁻¹			
B1				25.5 ± 3.6 µM	10.5 ± 0.4 s⁻¹
B2				20.4 ± 3.6 µM	0.28 ± 0.01 s⁻¹
B3				8.6 ± 1.5 µM	0.92 ± 0.03 s⁻¹
